Patent publication US20190330344A1 (F STAR THERAPEUTICS, published 2019)
Numbering of substitutions follows the chain as printed. Values belong to the molecule of their own block, whether it stands above or below them.

Columns and labels:
human FcγRIIa (human) = human FcγRIIa (human) (UniProt P12318); experiment: SPR (Biacore T200), FcγR immobilised, 500 µg/ml analyte
human FcγRIIb (human) = human FcγRIIb (human) (UniProt P31994); experiment: as above
human FcγRIII (human) = human FcγRIII (human) (UniProt P08637); experiment: SPR (Biacore T200), FcγR immobilised, 200 µg/ml analyte
Sequence of human FcγRIII (human) (P08637 17-208 limits assumed): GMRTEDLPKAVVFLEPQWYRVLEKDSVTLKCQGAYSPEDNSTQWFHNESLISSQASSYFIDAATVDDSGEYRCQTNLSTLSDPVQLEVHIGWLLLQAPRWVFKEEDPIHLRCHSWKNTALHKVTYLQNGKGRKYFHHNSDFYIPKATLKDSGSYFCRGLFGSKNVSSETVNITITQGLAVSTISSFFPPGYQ

human FcγRI (human) = human FcγRI (human) (UniProt P12314); experiment: as above
Sequence of human FcγRI (human) (P12314 16-288 limits assumed): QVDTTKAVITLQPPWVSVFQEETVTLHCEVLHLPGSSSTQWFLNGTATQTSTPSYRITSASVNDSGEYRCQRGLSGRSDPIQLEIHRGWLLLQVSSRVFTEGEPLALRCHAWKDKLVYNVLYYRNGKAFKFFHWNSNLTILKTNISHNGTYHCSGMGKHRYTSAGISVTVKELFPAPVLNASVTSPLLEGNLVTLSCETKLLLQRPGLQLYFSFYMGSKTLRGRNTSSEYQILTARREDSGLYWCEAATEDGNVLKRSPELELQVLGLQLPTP

[1] = target: mouse LAG-3 expressed on cells (HEK cells expressing mLAG-3 or DO11.10 mLAG-3) (mouse) (UniProt Q61790); experiment: cell-based or functional assay
[2] = target: T1, cynomolgus LAG-3 expressed on DO11.10 cells (cynomolgus monkey, UniProt P18627 24-525 (human entry)); experiment: cell-based or functional assay
T1 chain: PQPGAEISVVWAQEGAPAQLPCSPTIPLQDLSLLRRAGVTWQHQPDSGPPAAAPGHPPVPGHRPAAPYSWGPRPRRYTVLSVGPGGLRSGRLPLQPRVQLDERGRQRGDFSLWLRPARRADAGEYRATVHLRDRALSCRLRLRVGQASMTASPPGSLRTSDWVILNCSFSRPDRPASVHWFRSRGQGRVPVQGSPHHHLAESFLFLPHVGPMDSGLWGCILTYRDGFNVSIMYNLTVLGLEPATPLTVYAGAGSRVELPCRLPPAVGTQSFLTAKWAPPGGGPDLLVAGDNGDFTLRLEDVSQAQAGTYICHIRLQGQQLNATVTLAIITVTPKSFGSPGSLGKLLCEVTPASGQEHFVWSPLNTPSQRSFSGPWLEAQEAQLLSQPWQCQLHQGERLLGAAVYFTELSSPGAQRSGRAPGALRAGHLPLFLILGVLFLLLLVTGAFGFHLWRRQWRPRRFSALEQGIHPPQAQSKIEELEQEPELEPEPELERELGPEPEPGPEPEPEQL

[3] = target: T2, human LAG-3 expressed on cells (DO11.10 or HEK 293 cells over-expressing human LAG-3) (human, UniProt P18627 23-525); experiment: cell-based or functional assay
T2 sequence: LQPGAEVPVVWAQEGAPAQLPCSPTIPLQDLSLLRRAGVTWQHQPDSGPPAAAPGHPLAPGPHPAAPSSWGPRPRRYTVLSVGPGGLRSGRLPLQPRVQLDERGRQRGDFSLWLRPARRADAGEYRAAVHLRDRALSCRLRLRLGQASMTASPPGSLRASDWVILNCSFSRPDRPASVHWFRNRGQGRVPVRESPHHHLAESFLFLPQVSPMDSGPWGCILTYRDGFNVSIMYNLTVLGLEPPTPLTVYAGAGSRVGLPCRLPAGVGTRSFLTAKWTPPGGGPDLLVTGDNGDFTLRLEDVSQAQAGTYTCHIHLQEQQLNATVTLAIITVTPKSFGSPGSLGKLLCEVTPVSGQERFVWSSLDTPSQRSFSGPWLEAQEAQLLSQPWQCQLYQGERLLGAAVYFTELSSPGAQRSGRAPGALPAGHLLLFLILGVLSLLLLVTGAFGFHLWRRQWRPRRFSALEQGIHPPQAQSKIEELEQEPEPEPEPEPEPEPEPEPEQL

[4] = target: T3, mouse LAG-3 expressed on cells (HEK cells expressing mLAG-3 or DO11.10 mLAG-3) (mouse, UniProt Q61790 24-521); experiment: cell-based or functional assay
T3 sequence: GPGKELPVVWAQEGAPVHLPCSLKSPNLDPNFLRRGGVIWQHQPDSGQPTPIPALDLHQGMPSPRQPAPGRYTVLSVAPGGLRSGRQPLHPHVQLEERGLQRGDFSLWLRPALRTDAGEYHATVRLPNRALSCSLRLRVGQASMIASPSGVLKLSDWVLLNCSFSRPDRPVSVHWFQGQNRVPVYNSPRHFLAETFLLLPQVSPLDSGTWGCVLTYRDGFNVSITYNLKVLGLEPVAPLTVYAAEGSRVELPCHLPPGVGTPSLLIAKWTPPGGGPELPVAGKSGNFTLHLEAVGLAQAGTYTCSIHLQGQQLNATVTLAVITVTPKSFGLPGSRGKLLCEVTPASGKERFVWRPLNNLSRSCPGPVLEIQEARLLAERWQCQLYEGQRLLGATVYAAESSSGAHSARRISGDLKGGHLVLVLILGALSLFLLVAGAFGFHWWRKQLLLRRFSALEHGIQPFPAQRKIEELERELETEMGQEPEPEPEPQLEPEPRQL

Sequence of human FcγRIIa (human) (P12318 36-218 limits assumed): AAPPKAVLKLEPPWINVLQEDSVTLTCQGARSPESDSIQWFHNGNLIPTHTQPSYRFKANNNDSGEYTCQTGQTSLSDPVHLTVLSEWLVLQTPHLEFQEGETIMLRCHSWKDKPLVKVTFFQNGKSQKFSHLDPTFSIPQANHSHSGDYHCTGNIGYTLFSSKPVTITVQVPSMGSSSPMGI
Sequence of human FcγRIIb (human) (P31994 46-217 limits assumed): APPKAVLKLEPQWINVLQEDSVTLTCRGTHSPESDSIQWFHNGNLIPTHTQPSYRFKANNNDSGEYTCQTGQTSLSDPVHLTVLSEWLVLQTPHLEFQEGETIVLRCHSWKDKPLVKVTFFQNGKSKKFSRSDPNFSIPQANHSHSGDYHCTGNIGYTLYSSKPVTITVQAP

- Binding response at end of association (RU) (human FcγRIIa (human)): 13 RU
- Binding response at end of association (RU) (human FcγRIIb (human)): 17.7 RU
- Binding response at end of association (RU) (human FcγRIII (human)): 44 RU
- Binding response at end of association (RU) (human FcγRI (human)): 26 RU
Molecule: mock mAb IgG1 (wild type IgG1 isotype mAb, positive control without LALA) (antibody)

- EC50 of mIL-2 release, DO11.10 T cell activation assay (mouse LAG-3) [1]: 5.1 nM
- Maximal IL-2 release [1]: 48 pg/mL
Molecule: benchmark anti-mouse LAG-3 mAb C9B7W (2B Scientific, BE0174-50MG) (antibody)

- Binding response at end of association (RU) (human FcγRIIa (human)): -12.7 RU
- Binding response at end of association (RU) (human FcγRIIb (human)): -9.6 RU
- Binding response at end of association (RU) (human FcγRIII (human)): 8 RU
- Binding response at end of association (RU) (human FcγRI (human)): 2 RU
Molecule: mock mAb LALA (control LALA IgG1 mAb) (antibody)

- EC50 of mIL-2 release, cynomolgus LAG-3 DO11.10 T cell activation assay [2]: 5.6 nM
B1: FS18-7-9/4420LALA (anti-human LAG-3 Fcab FS18-7-9 in mock mAb^2 format comprising the LALA mutation) (bispecific antibody, human IgG1, kappa, L234A L235A)
heavy: EVKLDETGGGLVQPGRPMKLSCVASGFTFSDYWMNWVRQSPEKGLEWVAQIRNKPYNYETYYSDSVKGRFTISRDDSKSSVYLQMNNLRVEDMGIYYCTGSYYGMDYWGQGTSVTVSSASTKGPSVFPLAPSSKSTSGGTAALGCLVKDYFPEPVTVSWNSGALTSGVHTFPAVLQSSGLYSLSSVVTVPSSSLGTQTYICNVNHKPSNTKVDKKVEPKSCDKTHTCPPCPAPEAAGGPSVFLFPPKPKDTLMISRTPEVTCVVVDVSHEDPEVKFNWYVDGVEVHNAKTKPREEQYNSTYRVVSVLTVLHQDWLNGKEYKCKVSNKALPAPIEKTISKAKGQPREPQVYTLPPSWDEPWGEDVSLTCLVKGFYPSDIAVEWESNGQPENNYKTTPPVLDSDGSFFLYSKLTVPYDRWVWPDEFSCSVMHEALHNHYTQKSLSLSPG
light: DVVMTQTPLSLPVSLGDQASISCRSSQSLVHSNGNTYLRWYLQKPGQSPKVLIYKVSNRFSGVPDRFSGSGSGTDFTLKISRVEAEDLGVYFCSQSTHVPWTFGGGTKLEIKRTVAAPSVFIFPPSDEQLKSGTASVVCLLNNFYPREAKVQWKVDNALQSGNSQESVTEQDSKDSTYSLSSTLTLSKADYEKHKVYACEVTHQGLSSPVTKSFNRGEC

- EC50 of mIL-2 release, DO11.10 T cell activation assay (human LAG-3) [3]: 0.8 nM
B2: anti-human LAG-3 Fcab FS18-7-95 with truncated hinge and LALA mutation (designed binder)
chain: TCPPCPAPEAAGGPSVFLFPPKPKDTLMISRTPEVTCVVVDVSHEDPEVKFNWYVDGVEVHNAKTKPREEQYNSTYRVVSVLTVLHQDWLNGKEYKCKVSNKALPAPIEKTISKAKGQPREPQVYTLPPSWDEPWGEDVSLTCLVKGFYPSDIAVEWESNGYQEDNYKTTPPVLDSDGSFFLYSKLTVPYDRWVWPDEFSCSVMHEALHNHYTQKSLSLSPG

- EC50 of mIL-2 release, DO11.10 T cell activation assay (mouse LAG-3) [4]: 1.8 nM
B3: surrogate anti-mouse LAG-3 Fcab FS18-7-108-35 with truncated hinge, comprising LALA mutation (designed binder)
chain: B2 chain with A154S, Y162Q, Q163P, D165N, Y190F, D191E, V194M

- EC50 of mIL-2 release, DO11.10 T cell activation assay (human LAG-3) [3]: 1.1 nM
B4: anti-human LAG-3 Fcab FS18-7-65 with truncated hinge and LALA mutation (designed binder)
chain: B2 chain with Q163A, D165Y

- EC50 of mIL-2 release, DO11.10 T cell activation assay (human LAG-3) [3]: 1.1 nM
B5: anti-human LAG-3 Fcab FS18-7-62 with truncated hinge and LALA mutation (designed binder)
chain: B2 chain with Y162I, Q163P, D165W

- EC50 of mIL-2 release, DO11.10 T cell activation assay (mouse LAG-3) [4]: 1.9 nM
B6: surrogate anti-mouse LAG-3 Fcab FS18-7-108-29 with truncated hinge, comprising LALA mutation (designed binder)
chain: B2 chain with A154V, Y162Q, Q163P, D165N, Y190F, D191E, V194M

- EC50 of mIL-2 release, DO11.10 T cell activation assay (human LAG-3) [3]: 1.2 nM
B7: anti-human LAG-3 Fcab FS18-7-9 with truncated hinge and LALA mutation (designed binder)
chain: B2 chain with Y162Q, Q163P, D165N

- EC50 of mIL-2 release, DO11.10 T cell activation assay (human LAG-3) [3]: 1 nM
B8: anti-human LAG-3 Fcab FS18-7-78 with truncated hinge and LALA mutation (designed binder)
chain: B2 chain with Q163K, D165E

- EC50 of mIL-2 release, DO11.10 T cell activation assay (human LAG-3) [3]: 1.3 nM
B9: anti-human LAG-3 Fcab FS18-7-36 with truncated hinge and LALA mutation (designed binder)
chain: B2 chain with Y162Q, Q163P, D165N, F180Y

- EC50 of mIL-2 release, DO11.10 T cell activation assay (human LAG-3) [3]: 1.3 nM
B10: anti-human LAG-3 Fcab FS18-7-88 with truncated hinge and LALA mutation (designed binder)
chain: B2 chain with Y162V, Q163P, D165L, Y167V

- EC50 of mIL-2 release, DO11.10 T cell activation assay (human LAG-3) [3]: 1.3 nM
B11: anti-human LAG-3 Fcab FS18-7-58 with truncated hinge and LALA mutation (designed binder)
chain: B2 chain with Q163P, D165I, N166E, Y167F

- EC50 of mIL-2 release, DO11.10 T cell activation assay (human LAG-3) [3]: 1.1 nM
B12: anti-human LAG-3 Fcab FS18-7-33 with truncated hinge and LALA mutation (designed binder)
chain: B2 chain with Y162Q, Q163P

- EC50 of mIL-2 release, DO11.10 T cell activation assay (human LAG-3) [3]: 1.7 nM
B13: anti-human LAG-3 Fcab FS18-7-32 with truncated hinge and LALA mutation (designed binder)
chain: B2 chain with D152E, Y162Q, Q163P, D165N
